The target of the test is T1, (7× His)-PSD-95-PDZ2 wild type (UniProt P78352 160-246).
T1 construct: domain: PDZ2; recombinant from E. coli; also called PSD-95-PDZ2 WT; not shown: 7x His tag
Description: FP competition.

[ ]: non-standard residue; d: D form.

T1 sequence (P78352 160-246): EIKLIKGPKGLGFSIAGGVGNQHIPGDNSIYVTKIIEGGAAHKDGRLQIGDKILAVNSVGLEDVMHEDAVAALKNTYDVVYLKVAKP

B1: cyclic nNOS β-hairpin peptide L107K (peptide)
peptide: cyclo(THKETTFTGDGTPKTIRVTQ[dP]GQ)
SMILES: CC[C@H](C)[C@@H]1NC(=O)[C@H]([C@@H](C)O)NC(=O)[C@H](CCCCN)NC(=O)[C@@H]2CCCN2C(=O)[C@H]([C@@H](C)O)NC(=O)CNC(=O)[C@H](CC(=O)O)NC(=O)CNC(=O)[C@H]([C@@H](C)O)NC(=O)[C@H](Cc2ccccc2)NC(=O)[C@H]([C@@H](C)O)NC(=O)[C@H]([C@@H](C)O)NC(=O)[C@H](CCC(=O)O)NC(=O)[C@H](CCCCN)NC(=O)[C@H](Cc2c[nH]cn2)NC(=O)[C@H]([C@@H](C)O)NC(=O)[C@H](CCC(N)=O)NC(=O)CNC(=O)[C@H]2CCCN2C(=O)[C@H](CCC(N)=O)NC(=O)[C@H]([C@@H](C)O)NC(=O)[C@H](C(C)C)NC(=O)[C@H](CCCNC(=N)N)NC1=O
Take B1: the inhibitory constant (Ki) (usually the dissociation constant of the complex between target and ligand, obtained from inhibition or displacement) is 1200 nM; the “Relative Ki (Ki mut/Ki WT)” value was 0.8.

B2: cyclic nNOS β-hairpin peptide T112D (peptide)
peptide: cyclo(THLETTFDGDGTPKTIRVTQ[dP]GQ)
SMILES: CC[C@H](C)[C@@H]1NC(=O)[C@H]([C@@H](C)O)NC(=O)[C@H](CCCCN)NC(=O)[C@@H]2CCCN2C(=O)[C@H]([C@@H](C)O)NC(=O)CNC(=O)[C@H](CC(=O)O)NC(=O)CNC(=O)[C@H](CC(=O)O)NC(=O)[C@H](Cc2ccccc2)NC(=O)[C@H]([C@@H](C)O)NC(=O)[C@H]([C@@H](C)O)NC(=O)[C@H](CCC(=O)O)NC(=O)[C@H](CC(C)C)NC(=O)[C@H](Cc2c[nH]cn2)NC(=O)[C@H]([C@@H](C)O)NC(=O)[C@H](CCC(N)=O)NC(=O)CNC(=O)[C@H]2CCCN2C(=O)[C@H](CCC(N)=O)NC(=O)[C@H]([C@@H](C)O)NC(=O)[C@H](C(C)C)NC(=O)[C@H](CCCNC(=N)N)NC1=O
In the case of B2, the affinity, expressed as Ki, was 950 nM and the “Relative Ki (Ki mut/Ki WT)” value came out at 0.63.

B3: cyclic nNOS β-hairpin peptide T109S (peptide)
peptide: cyclo(THLESTFTGDGTPKTIRVTQ[dP]GQ)
SMILES: CC[C@H](C)[C@@H]1NC(=O)[C@H]([C@@H](C)O)NC(=O)[C@H](CCCCN)NC(=O)[C@@H]2CCCN2C(=O)[C@H]([C@@H](C)O)NC(=O)CNC(=O)[C@H](CC(=O)O)NC(=O)CNC(=O)[C@H]([C@@H](C)O)NC(=O)[C@H](Cc2ccccc2)NC(=O)[C@H]([C@@H](C)O)NC(=O)[C@H](CO)NC(=O)[C@H](CCC(=O)O)NC(=O)[C@H](CC(C)C)NC(=O)[C@H](Cc2c[nH]cn2)NC(=O)[C@H]([C@@H](C)O)NC(=O)[C@H](CCC(N)=O)NC(=O)CNC(=O)[C@H]2CCCN2C(=O)[C@H](CCC(N)=O)NC(=O)[C@H]([C@@H](C)O)NC(=O)[C@H](C(C)C)NC(=O)[C@H](CCCNC(=N)N)NC1=O
Take B3: the Ki was 24500 nM and the “Relative Ki (Ki mut/Ki WT)” value was 2.51.

B4: cyclic nNOS β-hairpin peptide T123F (peptide)
peptide: cyclo(THLETTFTGDGTPKTIRVFQ[dP]GQ)
SMILES: CC[C@H](C)[C@@H]1NC(=O)[C@H]([C@@H](C)O)NC(=O)[C@H](CCCCN)NC(=O)[C@@H]2CCCN2C(=O)[C@H]([C@@H](C)O)NC(=O)CNC(=O)[C@H](CC(=O)O)NC(=O)CNC(=O)[C@H]([C@@H](C)O)NC(=O)[C@H](Cc2ccccc2)NC(=O)[C@H]([C@@H](C)O)NC(=O)[C@H]([C@@H](C)O)NC(=O)[C@H](CCC(=O)O)NC(=O)[C@H](CC(C)C)NC(=O)[C@H](Cc2c[nH]cn2)NC(=O)[C@H]([C@@H](C)O)NC(=O)[C@H](CCC(N)=O)NC(=O)CNC(=O)[C@H]2CCCN2C(=O)[C@H](CCC(N)=O)NC(=O)[C@H](Cc2ccccc2)NC(=O)[C@H](C(C)C)NC(=O)[C@H](CCCNC(=N)N)NC1=O
With B4, the Ki is 1580 nM and the “Relative Ki (Ki mut/Ki WT)” value turned out to be 1.05.

B5: cyclic nNOS β-hairpin peptide T105G (peptide)
peptide: cyclo(GHLETTFTGDGTPKTIRVTQ[dP]GQ)
SMILES: CC[C@H](C)[C@@H]1NC(=O)[C@H]([C@@H](C)O)NC(=O)[C@H](CCCCN)NC(=O)[C@@H]2CCCN2C(=O)[C@H]([C@@H](C)O)NC(=O)CNC(=O)[C@H](CC(=O)O)NC(=O)CNC(=O)[C@H]([C@@H](C)O)NC(=O)[C@H](Cc2ccccc2)NC(=O)[C@H]([C@@H](C)O)NC(=O)[C@H]([C@@H](C)O)NC(=O)[C@H](CCC(=O)O)NC(=O)[C@H](CC(C)C)NC(=O)[C@H](Cc2c[nH]cn2)NC(=O)CNC(=O)[C@H](CCC(N)=O)NC(=O)CNC(=O)[C@H]2CCCN2C(=O)[C@H](CCC(N)=O)NC(=O)[C@H]([C@@H](C)O)NC(=O)[C@H](C(C)C)NC(=O)[C@H](CCCNC(=N)N)NC1=O
Take B5: affinity was put at a Ki of 4500 nM and the “Relative Ki (Ki mut/Ki WT)” value came out at 3.

B6: cyclic nNOS β-hairpin peptide T119S (peptide)
peptide: cyclo(THLETTFTGDGTPKSIRVTQ[dP]GQ)
SMILES: CC[C@H](C)[C@@H]1NC(=O)[C@H](CO)NC(=O)[C@H](CCCCN)NC(=O)[C@@H]2CCCN2C(=O)[C@H]([C@@H](C)O)NC(=O)CNC(=O)[C@H](CC(=O)O)NC(=O)CNC(=O)[C@H]([C@@H](C)O)NC(=O)[C@H](Cc2ccccc2)NC(=O)[C@H]([C@@H](C)O)NC(=O)[C@H]([C@@H](C)O)NC(=O)[C@H](CCC(=O)O)NC(=O)[C@H](CC(C)C)NC(=O)[C@H](Cc2c[nH]cn2)NC(=O)[C@H]([C@@H](C)O)NC(=O)[C@H](CCC(N)=O)NC(=O)CNC(=O)[C@H]2CCCN2C(=O)[C@H](CCC(N)=O)NC(=O)[C@H]([C@@H](C)O)NC(=O)[C@H](C(C)C)NC(=O)[C@H](CCCNC(=N)N)NC1=O
In the case of B6, the Ki is 7190 nM and the “Relative Ki (Ki mut/Ki WT)” value was determined as 4.79.

B7: cyclic nNOS β-hairpin peptide T116P (peptide)
peptide: cyclo(THLETTFTGDGPPKTIRVTQ[dP]GQ)
SMILES: CC[C@H](C)[C@@H]1NC(=O)[C@H]([C@@H](C)O)NC(=O)[C@H](CCCCN)NC(=O)[C@@H]2CCCN2C(=O)[C@@H]2CCCN2C(=O)CNC(=O)[C@H](CC(=O)O)NC(=O)CNC(=O)[C@H]([C@@H](C)O)NC(=O)[C@H](Cc2ccccc2)NC(=O)[C@H]([C@@H](C)O)NC(=O)[C@H]([C@@H](C)O)NC(=O)[C@H](CCC(=O)O)NC(=O)[C@H](CC(C)C)NC(=O)[C@H](Cc2c[nH]cn2)NC(=O)[C@H]([C@@H](C)O)NC(=O)[C@H](CCC(N)=O)NC(=O)CNC(=O)[C@H]2CCCN2C(=O)[C@H](CCC(N)=O)NC(=O)[C@H]([C@@H](C)O)NC(=O)[C@H](C(C)C)NC(=O)[C@H](CCCNC(=N)N)NC1=O
For B7, the Ki came to 1160 nM and the “Relative Ki (Ki mut/Ki WT)” value was 0.77.

B8: cyclic nNOS β-hairpin peptide T119N (peptide)
peptide: cyclo(THLETTFTGDGTPKNIRVTQ[dP]GQ)
SMILES: CC[C@H](C)[C@@H]1NC(=O)[C@H](CC(N)=O)NC(=O)[C@H](CCCCN)NC(=O)[C@@H]2CCCN2C(=O)[C@H]([C@@H](C)O)NC(=O)CNC(=O)[C@H](CC(=O)O)NC(=O)CNC(=O)[C@H]([C@@H](C)O)NC(=O)[C@H](Cc2ccccc2)NC(=O)[C@H]([C@@H](C)O)NC(=O)[C@H]([C@@H](C)O)NC(=O)[C@H](CCC(=O)O)NC(=O)[C@H](CC(C)C)NC(=O)[C@H](Cc2c[nH]cn2)NC(=O)[C@H]([C@@H](C)O)NC(=O)[C@H](CCC(N)=O)NC(=O)CNC(=O)[C@H]2CCCN2C(=O)[C@H](CCC(N)=O)NC(=O)[C@H]([C@@H](C)O)NC(=O)[C@H](C(C)C)NC(=O)[C@H](CCCNC(=N)N)NC1=O
On to B8, for which the inhibition constant (Ki) is 18900 nM and the “Relative Ki (Ki mut/Ki WT)” value was 12.6.

B9: cyclic nNOS β-hairpin peptide T116C (peptide)
peptide: cyclo(THLETTFTGDGCPKTIRVTQ[dP]GQ)
SMILES: CC[C@H](C)[C@@H]1NC(=O)[C@H]([C@@H](C)O)NC(=O)[C@H](CCCCN)NC(=O)[C@@H]2CCCN2C(=O)[C@H](CS)NC(=O)CNC(=O)[C@H](CC(=O)O)NC(=O)CNC(=O)[C@H]([C@@H](C)O)NC(=O)[C@H](Cc2ccccc2)NC(=O)[C@H]([C@@H](C)O)NC(=O)[C@H]([C@@H](C)O)NC(=O)[C@H](CCC(=O)O)NC(=O)[C@H](CC(C)C)NC(=O)[C@H](Cc2c[nH]cn2)NC(=O)[C@H]([C@@H](C)O)NC(=O)[C@H](CCC(N)=O)NC(=O)CNC(=O)[C@H]2CCCN2C(=O)[C@H](CCC(N)=O)NC(=O)[C@H]([C@@H](C)O)NC(=O)[C@H](C(C)C)NC(=O)[C@H](CCCNC(=N)N)NC1=O
For B9, the inhibition constant Ki worked out at 1360 nM and the “Relative Ki (Ki mut/Ki WT)” value amounted to 0.91.

B10: cyclic nNOS β-hairpin peptide T116N (peptide)
peptide: cyclo(THLETTFTGDGNPKTIRVTQ[dP]GQ)
SMILES: CC[C@H](C)[C@@H]1NC(=O)[C@H]([C@@H](C)O)NC(=O)[C@H](CCCCN)NC(=O)[C@@H]2CCCN2C(=O)[C@H](CC(N)=O)NC(=O)CNC(=O)[C@H](CC(=O)O)NC(=O)CNC(=O)[C@H]([C@@H](C)O)NC(=O)[C@H](Cc2ccccc2)NC(=O)[C@H]([C@@H](C)O)NC(=O)[C@H]([C@@H](C)O)NC(=O)[C@H](CCC(=O)O)NC(=O)[C@H](CC(C)C)NC(=O)[C@H](Cc2c[nH]cn2)NC(=O)[C@H]([C@@H](C)O)NC(=O)[C@H](CCC(N)=O)NC(=O)CNC(=O)[C@H]2CCCN2C(=O)[C@H](CCC(N)=O)NC(=O)[C@H]([C@@H](C)O)NC(=O)[C@H](C(C)C)NC(=O)[C@H](CCCNC(=N)N)NC1=O
As to B10, the Ki worked out at 510 nM and the “Relative Ki (Ki mut/Ki WT)” value came to 0.34.

B11: cyclic nNOS β-hairpin peptide T116W (peptide)
peptide: cyclo(THLETTFTGDGWPKTIRVTQ[dP]GQ)
SMILES: CC[C@H](C)[C@@H]1NC(=O)[C@H]([C@@H](C)O)NC(=O)[C@H](CCCCN)NC(=O)[C@@H]2CCCN2C(=O)[C@H](Cc2c[nH]c3ccccc23)NC(=O)CNC(=O)[C@H](CC(=O)O)NC(=O)CNC(=O)[C@H]([C@@H](C)O)NC(=O)[C@H](Cc2ccccc2)NC(=O)[C@H]([C@@H](C)O)NC(=O)[C@H]([C@@H](C)O)NC(=O)[C@H](CCC(=O)O)NC(=O)[C@H](CC(C)C)NC(=O)[C@H](Cc2c[nH]cn2)NC(=O)[C@H]([C@@H](C)O)NC(=O)[C@H](CCC(N)=O)NC(=O)CNC(=O)[C@H]2CCCN2C(=O)[C@H](CCC(N)=O)NC(=O)[C@H]([C@@H](C)O)NC(=O)[C@H](C(C)C)NC(=O)[C@H](CCCNC(=N)N)NC1=O
Turning to B11, the inhibitory constant (Ki) was found to be 1040 nM and the “Relative Ki (Ki mut/Ki WT)” value was 0.69.

The record behind these values is US20230220021A1 (UNIVERSITY OF COPENHAGEN, published 2023).
